Source: patent publication US20210388087A1 (Chugai, published 2021)
Residue numbers refer to the chain shown, from its start.

B1: H183/L072 VL S52T (antibody, name in Kabat numbering, V domains shown)
VH: QVQLVESGGGLVQPGRSLRLSCAASGFTFSNAWMHWVRQAPGKGLEWVAQIKDKGNAYAAYYAPSVKGRFTISRDDSKNSIYLQMNSLKTEDTAVYYCHYVHYASASTVLPAFGVDAWGQGTTVTVSS
VL: DIVMTQSPLSLPVTPGEPASISCQASQELVHMNRNTYLHWYQQKPGQAPRLLIYKVTNRFPGVPDRFSGSGSGTDFTLKISRVEAEDVGVYYCAQGTSVPFTFGQGTKLEIK
notes: Dual-Ig
B2: H183/L072 VL S93R (antibody, name in Kabat numbering, V domains shown)
VH: B1 VH
VL: B1 VL with T57S, S98R
notes: Dual-Ig
B3: H183/L072 VL S93A (antibody, name in Kabat numbering, V domains shown)
VH: B1 VH
VL: B1 VL with T57S, S98A
notes: Dual-Ig
B4: H183/L072 VL S93H (antibody, name in Kabat numbering, V domains shown)
VH: B1 VH
VL: B1 VL with T57S, S98H
notes: Dual-Ig
B5: H183/L072 VL S52V (antibody, name in Kabat numbering, V domains shown)
VH: B1 VH
VL: B1 VL with T57V
notes: Dual-Ig
B6: H183/L072 VL S93Q (antibody, name in Kabat numbering, V domains shown)
VH: B1 VH
VL: B1 VL with T57S, S98Q
notes: Dual-Ig
B7: H183/L072 VL S93L (antibody, name in Kabat numbering, V domains shown)
VH: B1 VH
VL: B1 VL with T57S, S98L
notes: Dual-Ig
B8: H183/L072 VL S93I (antibody, name in Kabat numbering, V domains shown)
VH: B1 VH
VL: B1 VL with T57S, S98I
notes: Dual-Ig
B9: H183/L072 VL S93D (antibody, name in Kabat numbering, V domains shown)
VH: B1 VH
VL: B1 VL with T57S, S98D
notes: Dual-Ig
B10: H183/L072 VL S93N (antibody, name in Kabat numbering, V domains shown)
VH: B1 VH
VL: B1 VL with T57S, S98N
notes: Dual-Ig
B11: H183/L072 VL S52W (antibody, name in Kabat numbering, V domains shown)
VH: B1 VH
VL: B1 VL with T57W
notes: Dual-Ig
B12: H183/L072 VL S93M (antibody, name in Kabat numbering, V domains shown)
VH: B1 VH
VL: B1 VL with T57S, S98M
notes: Dual-Ig
B13: H183/L072 VL S93E (antibody, name in Kabat numbering, V domains shown)
VH: B1 VH
VL: B1 VL with T57S, S98E
notes: Dual-Ig
B14: H183/L072 VL S93G (antibody, name in Kabat numbering, V domains shown)
VH: B1 VH
VL: B1 VL with T57S, S98G
notes: Dual-Ig
B15: H183/L072 VL S93F (antibody, name in Kabat numbering, V domains shown)
VH: B1 VH
VL: B1 VL with T57S, S98F
notes: Dual-Ig
B16: H183/L072 VL S93K (antibody, name in Kabat numbering, V domains shown)
VH: B1 VH
VL: B1 VL with T57S, S98K
notes: Dual-Ig
B17: H183/L072 VL S93P (antibody, name in Kabat numbering, V domains shown)
VH: B1 VH
VL: B1 VL with T57S, S98P
notes: Dual-Ig

Each binder was assayed against T1, Human CD137 ECD (human) (assay: Biacore SPR, vs parent H183/L072).
T1 construct: entry includes C-terminal His-tag and biotin acceptor peptide; also called human CD137 extracellular domain; 4-1BB
T1 sequence (chain, as listed by the source limits assumed): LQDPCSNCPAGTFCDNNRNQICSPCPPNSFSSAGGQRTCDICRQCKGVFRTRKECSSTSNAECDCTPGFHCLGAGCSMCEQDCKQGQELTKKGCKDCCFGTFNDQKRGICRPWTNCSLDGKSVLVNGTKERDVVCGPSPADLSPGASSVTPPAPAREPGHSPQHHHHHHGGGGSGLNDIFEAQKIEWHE

| Binder | fold change of affinity [fold] |
| --- | --- |
| B1 | 1 |
| B2 | 1 |
| B3 | 0.9 |
| B4 | 1.3 |
| B5 | 1.3 |
| B6 | 1.1 |
| B7 | 1.3 |
| B8 | 1.1 |
| B9 | 0.7 |
| B10 | 1 |
| B11 | 1 |
| B12 | 1 |
| B13 | 1 |
| B14 | 0.4 |
| B15 | 1 |
| B16 | 1.1 |
| B17 | 0 |
